{"source": "patent US20190032032A1", "biological_target": "HSP90 (heat shock protein 90) (human (endogenous in the human Huh7.5-derived JFH-1 cell line)) (UniProt P07900)", "assay": "cell-based or functional assay"}
{"substance": "PEP1 peptide (hTERT-derived 16mer peptide, 611-…-626)", "values": [{"measurement": "mean 50% inhibitory concentration (IC50) of HIV-1 viral particle production in MT-4 cells, p24 ELISA", "result": 850, "unit": "nM"}]}
